Test results reported in patent publication US20240294650A1 (Alector, published 2024).

T1: recombinant cynomolgus MerTK extracellular domain (cynomolgus, UniProt Q12866 21-505 (human entry))
T1 construct: also called cyno MerTK ECD; not shown: polyHis or TEVS/Thrombin/murine IgG2a-Fc tag
T1 chain: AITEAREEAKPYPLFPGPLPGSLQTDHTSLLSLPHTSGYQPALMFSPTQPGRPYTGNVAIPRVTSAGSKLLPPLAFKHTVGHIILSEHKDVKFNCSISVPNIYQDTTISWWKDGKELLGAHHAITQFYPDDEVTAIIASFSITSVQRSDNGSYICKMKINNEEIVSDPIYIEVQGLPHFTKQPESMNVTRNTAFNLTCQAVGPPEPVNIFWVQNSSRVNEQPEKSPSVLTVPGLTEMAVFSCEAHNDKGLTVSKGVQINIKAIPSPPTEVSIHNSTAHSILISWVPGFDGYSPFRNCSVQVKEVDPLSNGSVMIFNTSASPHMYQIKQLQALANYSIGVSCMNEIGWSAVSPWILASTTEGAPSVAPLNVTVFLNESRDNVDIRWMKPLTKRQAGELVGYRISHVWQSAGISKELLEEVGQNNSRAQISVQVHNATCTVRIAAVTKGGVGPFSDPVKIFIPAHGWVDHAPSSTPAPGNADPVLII


Target: T1, recombinant cynomolgus MerTK …
Experiment: SPR Carterra LSA, Ab immobilised; LB = low binding (below limit of measurement), KD not determined

binding result	Binder
binds	MTK-207 (antibody, human IgG1, V domains shown) VH: QVQLKESGPGLVAPSQSLSITCTVSGISLTSYGVSWVRQPPGKGLEWLGIIWGDGSTNYHSALISRLSISKDNSKSQVFLKLNSLQTDDTATYYCAKGRYGNYEDWYFDVWGTGTTVTVSS VL: DIQMTQSPASLSASVGETVTITCRASGNIHNYLAWYQQKQGKSPQLLVYNAKTLAAGVPSRFSGSGSGTQYSLKINSLQPEDFGSYYCQHFWSIPLTFGAGTKLELK
binds	MTK-216 (antibody, human IgG1, V domains shown) VH: EVQLVESGGGLVKPGGSLKLSCAASGFTFSDYGMHWVRQAPEKGLEWVAFISSGSTTIYYADTVKGRFTISRDNAKNTLILQMTSLRSEDTAIYYCTRGGFHLDYWGQGTTLTVSS VL: SIMMTQSPSSLAVSAGEKVTMGCKSSQSVLYSANQQNYLAWYQQKPGQSLKLLIYWASTRESGVPDRFTGSGSGTDFTLTISSVQAEDLAVYYCHQYFSSWTFGGGTKLEIK
